25 substances from patent US20060211075A1, “Enzyme sensors including environmentally sensitive or fluorescent labels and uses thereof” (The Albert Einstein College of Medicine of Yeshiva …, priority 2005, published 2006) can be followed below.

The term Km denotes the substrate concentration at which the rate is half of its maximum. As a reminder, the Vmax is the rate approached at saturating substrate.

Series [1] concerns the target GST-Lck-SH2 (UniProt P06239). Put plainly: fluorescence change on Src-catalysed phosphorylation in presence of GST-Lck-SH2 (1.25 µM peptide, 5 µM Lck-SH2, 12 nM Src, 1 mM ATP).
For series [2], the system named is T1, CC[C@H](C)[C@H](NC(=O)[C@H](CCC(=O)O)NC(=O)[C@H](CNc1ccc([N+](=O)[O-])c2nonc12)NC(=O)[C@H](Cc1ccc(O)cc1)NC(=O)[C@@H](NC(=O)[C@H](CCC(=O)O)NC(=O)[C@H](CCC(=O)O)NC(=O)[C@H](CCC(=O)O)NC(C)=O)[C@@H](C)CC)C(=O)N[C@@H](CCC(=O)O)C(=O)N[C@@H](C)C(N)=O.
T1 construct: purchased Invitrogen
Put plainly: purified protein, by the assay type. Particulars: other: Src kinase; Lck-SH2 20 μM; varying peptide; pH 7.5; 30.0 °C. It is filed as biochemical. The protocol: The fluorescence change was monitored as a function of time. Control assays in the absence of Lck-SH2 were also performed.
The final Src concentration was 30 nM for peptide 13 and 15 nM for peptide 14.

For series [3], the target named is GST-Lck-SH2 (UniProt P06239). Put plainly: fluorescence change on Src-catalysed phosphorylation in presence of GST-Lck-SH2; value in parentheses, amide-capped peptide 14.
GST-Lck-SH2, sequence (P06239 127-224): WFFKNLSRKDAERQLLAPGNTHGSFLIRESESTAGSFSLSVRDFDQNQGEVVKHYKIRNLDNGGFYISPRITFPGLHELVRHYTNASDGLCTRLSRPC
For series [4], the target named is GST-Lck-SH2 (UniProt P06239). Kind of series: fluorescence change on Src-catalysed phosphorylation in presence of GST-Lck-SH2 (1.25 µM peptide, 5 µM Lck-SH2, 12 nM Src, 1 mM ATP); library peptide with -NH(CH2)2SH.
Series [5] has as its target GST-Lck-SH2 (UniProt P06239). Kind of series: fluorescence change on Src-catalysed phosphorylation in presence of GST-Lck-SH2; value in parentheses, amide-capped peptide 13.

With “Src-phosphorylated library peptide with Dab-6 (NBD on Dab) at P+1 of Ac-Glu-Glu-Glu-Ile-Tyr-Gly-Glu-Ile-Glu-Ala”, in the series with GST-Lck-SH2 [1], the Fold change in fluorescence intensity was 1.3 fold.
As for “Src-phosphorylated library peptide with Dab-6 (NBD on Dab) at P+2 of Ac-Glu-Glu-Glu-Ile-Tyr-Gly-Glu-Ile-Glu-Ala”, the Fold change in fluorescence intensity with GST-Lck-SH2 [1] came out at 1.4 fold.
Same read-out and setting: the figure for “Src-phosphorylated library peptide with Dab-5 (dapoxyl on Dab) at P+3 of Ac-Glu-Glu-Glu-Ile-Tyr-Gly-Glu-Ile-Glu-Ala” is 3.6 fold; for “Src-phosphorylated library peptide with Dab-7 (Cascade Yellow on Dab) at P+3 of Ac-Glu-Glu-Glu-Ile-Tyr-Gly-Glu-Ile-Glu-Ala” it is 2.1 fold.
For the substance Src (Homo sapiens), in series [2], the Km is 32 ± 0.5 µM and the Vmax came out at 1.4 ± 0.1 µmol/min/mg.
With “Src-phosphorylated library peptide with Dap-6 (NBD on Dap) at P+3 of Ac-Glu-Glu-Glu-Ile-Tyr-Gly-Glu-Ile-Glu-Ala”, the Fold change in fluorescence intensity with GST-Lck-SH2 [1] is 1.3 fold.
Regarding “phosphorylated peptide 14, Ac-Glu-Glu-Glu-Ile-pTyr-Gly-Glu-Ile-Dab(dapoxyl)-Ala-amide”, the Fold change in fluorescence intensity with GST-Lck-SH2 [3] came out at 7.2 fold.
For the substance “Src-phosphorylated library peptide with Dab-7 (Cascade Yellow on Dab) at P+2 of Ac-Glu-Glu-Glu-Ile-Tyr-Gly-Glu-Ile-Glu-Ala”, the Fold change in fluorescence intensity in the series with GST-Lck-SH2 [1] was found to be 1.7 fold.
With “Src-phosphorylated library peptide with Dab-5 (dapoxyl on Dab) at P+4 of Ac-Glu-Glu-Glu-Ile-Tyr-Gly-Glu-Ile-Glu-Ala”, the Fold change in fluorescence intensity with GST-Lck-SH2 [4] was found to be 4.1 fold.
In the case of “Src-phosphorylated library peptide with Dap-7 (Cascade Yellow on Dap) at P+1 of Ac-Glu-Glu-Glu-Ile-Tyr-Gly-Glu-Ile-Glu-Ala”, in the series with GST-Lck-SH2 [1], the Fold change in fluorescence intensity stood at 1.4 fold.
Turning to “Src-phosphorylated library peptide with Dap-5 (dapoxyl on Dap) at P+4 of Ac-Glu-Glu-Glu-Ile-Tyr-Gly-Glu-Ile-Glu-Ala”, the Fold change in fluorescence intensity with GST-Lck-SH2 [1] came to 2.3 fold.
In the case of “Src-phosphorylated library peptide with Dap-5 (dapoxyl on Dap) at P+3 of Ac-Glu-Glu-Glu-Ile-Tyr-Gly-Glu-Ile-Glu-Ala”, in the series with GST-Lck-SH2 [1], the Fold change in fluorescence intensity worked out at 3.3 fold.
As for “Src-phosphorylated library peptide with Dap-7 (Cascade Yellow on Dap) at P+2 of Ac-Glu-Glu-Glu-Ile-Tyr-Gly-Glu-Ile-Glu-Ala”, the Fold change in fluorescence intensity with GST-Lck-SH2 [1] was found to be 1.8 fold.
Take “Src-phosphorylated library peptide with Dab-7 (Cascade Yellow on Dab) at P+1 of Ac-Glu-Glu-Glu-Ile-Tyr-Gly-Glu-Ile-Glu-Ala”: the Fold change in fluorescence intensity in the series with GST-Lck-SH2 [1] amounted to 1.5 fold.
Take “Src-phosphorylated library peptide with Dab-6 (NBD on Dab) at P+3 of Ac-Glu-Glu-Glu-Ile-Tyr-Gly-Glu-Ile-Glu-Ala”: the Fold change in fluorescence intensity with GST-Lck-SH2 [1] was 1.9 fold.
Regarding “Src-phosphorylated library peptide with Dab-5 (dapoxyl on Dab) at P+2 of Ac-Glu-Glu-Glu-Ile-Tyr-Gly-Glu-Ile-Glu-Ala”, the Fold change in fluorescence intensity with GST-Lck-SH2 [1] stood at 1.6 fold.
Take “phosphotyrosine version of peptide 13, Ac-Glu-Glu-Glu-Ile-pTyr-Dap(NBD)-Glu-Ile-Glu-Ala-amide”: the Fold change in fluorescence intensity with GST-Lck-SH2 [5] stood at 1.6 fold.
For “Src-phosphorylated library peptide with Dab-5 (dapoxyl on Dab) at P+1 of Ac-Glu-Glu-Glu-Ile-Tyr-Gly-Glu-Ile-Glu-Ala”, in the series with GST-Lck-SH2 [1], the Fold change in fluorescence intensity worked out at 2.4 fold.
On to “Src-phosphorylated library peptide with Dab-7 (Cascade Yellow on Dab) at P+4 of Ac-Glu-Glu-Glu-Ile-Tyr-Gly-Glu-Ile-Glu-Ala”, for which the Fold change in fluorescence intensity in the series with GST-Lck-SH2 [1] was determined as 1.6 fold.
The same measure, in the same setting: the value for “Src-phosphorylated library peptide with Dap-5 (dapoxyl on Dap) at P+2 of Ac-Glu-Glu-Glu-Ile-Tyr-Gly-Glu-Ile-Glu-Ala” was 2.4 fold; that for “Src-phosphorylated library peptide with Dab-6 (NBD on Dab) at P+4 of Ac-Glu-Glu-Glu-Ile-Tyr-Gly-Glu-Ile-Glu-Ala” was 1.7 fold.
With “Src-phosphorylated library peptide with Dap-6 (NBD on Dap) at P+1 of Ac-Glu-Glu-Glu-Ile-Tyr-Gly-Glu-Ile-Glu-Ala”, the Fold change in fluorescence intensity with GST-Lck-SH2 [4] came to 1.6 fold.
As to “Src-phosphorylated library peptide with Dap-7 (Cascade Yellow on Dap) at P+3 of Ac-Glu-Glu-Glu-Ile-Tyr-Gly-Glu-Ile-Glu-Ala”, the Fold change in fluorescence intensity with GST-Lck-SH2 [1] amounted to 1.6 fold.
As to “Src-phosphorylated library peptide with Dap-7 (Cascade Yellow on Dap) at P+4 of Ac-Glu-Glu-Glu-Ile-Tyr-Gly-Glu-Ile-Glu-Ala”, in the series with GST-Lck-SH2 [1], the Fold change in fluorescence intensity came out at 1.4 fold.
For “Src-phosphorylated library peptide with Dap-6 (NBD on Dap) at P+4 of Ac-Glu-Glu-Glu-Ile-Tyr-Gly-Glu-Ile-Glu-Ala”, in the series with GST-Lck-SH2 [1], the Fold change in fluorescence intensity stood at 1.3 fold.
